The values below come from patent US20140274782A1, “AFFINITY REAGENTS AND METHODS FOR DETECTION, PURIFICATION, AND PROTEOMIC ANALYSIS OF METHYLATED PROTEINS” (The Board of Trustees of the Leland Stanford Junior …, priority 2013, published 2014).

One experiment has as its system 3×MBT domain of L3MBTL1. The experiment is described as follows: Triple SILAC pull-down, 3xMBT/3xMBTD355N ratio (cytoplasmic, nuclear and chromatin fractions of 293T cells).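 As to all read-outs here: proteins quantified with MaxQuant, requiring at least two unique peptides and quantification in both label directions, normalized to the mean of proteins from a digested loading control.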 It counts as binding, human. The following applies: SILAC ratio 3xMBT vs 3xMBTD355N pull-down, 293T cells, all values in log base 2; for 3xMBT/D355N UNC Heavy: experiment with UNC0638 in heavy SILAC media; for 3xMBT/D355N UNC Light: experiment with UNC0638 in light SILAC media.

For the next experiment, the target named is T1, G9a and GLP (Homo sapiens, UniProt Q96KQ7+Q9H9B1).
T1 sequence (Q96KQ7 2-1210 limits assumed): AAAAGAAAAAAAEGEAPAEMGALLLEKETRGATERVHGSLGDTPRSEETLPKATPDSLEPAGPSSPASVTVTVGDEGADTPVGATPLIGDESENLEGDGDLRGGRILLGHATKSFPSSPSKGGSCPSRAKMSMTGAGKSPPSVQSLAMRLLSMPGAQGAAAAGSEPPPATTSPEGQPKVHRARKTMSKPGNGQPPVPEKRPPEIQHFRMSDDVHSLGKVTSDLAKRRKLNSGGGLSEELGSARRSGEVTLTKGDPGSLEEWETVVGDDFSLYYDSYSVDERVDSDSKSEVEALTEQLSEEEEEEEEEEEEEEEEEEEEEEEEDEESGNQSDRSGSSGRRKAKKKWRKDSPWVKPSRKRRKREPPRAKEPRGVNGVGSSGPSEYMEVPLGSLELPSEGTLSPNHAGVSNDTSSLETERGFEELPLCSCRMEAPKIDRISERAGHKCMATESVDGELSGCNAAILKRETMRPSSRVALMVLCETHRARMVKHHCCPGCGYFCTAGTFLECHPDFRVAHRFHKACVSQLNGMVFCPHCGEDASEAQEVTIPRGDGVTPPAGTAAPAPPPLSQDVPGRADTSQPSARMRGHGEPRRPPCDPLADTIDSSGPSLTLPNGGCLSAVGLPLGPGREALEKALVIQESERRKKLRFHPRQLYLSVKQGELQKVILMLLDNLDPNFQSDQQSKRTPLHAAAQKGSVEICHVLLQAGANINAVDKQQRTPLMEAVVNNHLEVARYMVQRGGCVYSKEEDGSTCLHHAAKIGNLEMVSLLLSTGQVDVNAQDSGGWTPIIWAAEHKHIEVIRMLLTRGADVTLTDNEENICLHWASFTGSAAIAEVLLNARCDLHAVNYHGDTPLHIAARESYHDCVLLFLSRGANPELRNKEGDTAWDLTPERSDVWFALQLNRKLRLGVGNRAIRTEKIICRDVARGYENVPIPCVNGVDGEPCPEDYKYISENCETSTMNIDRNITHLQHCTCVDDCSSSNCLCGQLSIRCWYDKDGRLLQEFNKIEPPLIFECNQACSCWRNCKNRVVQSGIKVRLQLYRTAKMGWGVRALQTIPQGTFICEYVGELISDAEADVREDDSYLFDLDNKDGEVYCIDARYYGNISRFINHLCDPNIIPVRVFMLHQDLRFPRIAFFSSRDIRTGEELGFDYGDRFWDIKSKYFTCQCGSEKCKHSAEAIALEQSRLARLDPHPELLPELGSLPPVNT
T1 sequence (Q9H9B1 2-1298 limits assumed): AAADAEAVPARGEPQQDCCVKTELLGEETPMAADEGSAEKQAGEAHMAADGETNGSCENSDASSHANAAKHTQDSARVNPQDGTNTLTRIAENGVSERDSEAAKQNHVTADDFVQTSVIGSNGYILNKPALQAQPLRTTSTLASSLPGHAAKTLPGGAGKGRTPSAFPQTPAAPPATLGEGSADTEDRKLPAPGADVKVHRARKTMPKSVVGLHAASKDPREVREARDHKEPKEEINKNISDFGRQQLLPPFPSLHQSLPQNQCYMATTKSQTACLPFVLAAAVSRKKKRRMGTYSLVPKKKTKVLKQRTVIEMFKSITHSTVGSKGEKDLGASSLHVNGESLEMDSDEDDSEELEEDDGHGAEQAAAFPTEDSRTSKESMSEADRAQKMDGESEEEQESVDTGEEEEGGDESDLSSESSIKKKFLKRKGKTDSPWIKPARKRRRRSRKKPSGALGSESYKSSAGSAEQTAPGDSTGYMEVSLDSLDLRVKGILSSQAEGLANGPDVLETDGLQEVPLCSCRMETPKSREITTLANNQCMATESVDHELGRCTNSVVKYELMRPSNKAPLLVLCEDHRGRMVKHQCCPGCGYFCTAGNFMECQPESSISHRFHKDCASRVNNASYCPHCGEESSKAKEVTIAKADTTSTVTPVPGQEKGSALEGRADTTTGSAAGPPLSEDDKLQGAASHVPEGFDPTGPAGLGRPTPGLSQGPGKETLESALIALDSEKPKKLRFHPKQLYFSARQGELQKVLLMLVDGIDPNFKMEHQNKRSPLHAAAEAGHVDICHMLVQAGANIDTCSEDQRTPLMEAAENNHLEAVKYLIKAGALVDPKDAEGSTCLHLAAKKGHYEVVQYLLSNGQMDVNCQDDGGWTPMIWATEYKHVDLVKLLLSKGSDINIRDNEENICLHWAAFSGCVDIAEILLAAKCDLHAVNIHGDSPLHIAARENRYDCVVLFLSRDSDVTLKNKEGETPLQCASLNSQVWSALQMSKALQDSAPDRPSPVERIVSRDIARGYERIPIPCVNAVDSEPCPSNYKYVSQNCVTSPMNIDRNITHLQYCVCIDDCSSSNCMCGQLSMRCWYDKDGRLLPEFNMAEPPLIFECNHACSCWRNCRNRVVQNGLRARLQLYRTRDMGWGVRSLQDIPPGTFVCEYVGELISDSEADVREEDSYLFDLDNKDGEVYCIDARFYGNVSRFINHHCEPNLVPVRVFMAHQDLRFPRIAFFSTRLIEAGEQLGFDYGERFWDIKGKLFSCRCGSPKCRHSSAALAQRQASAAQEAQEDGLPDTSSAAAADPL
The experiment is described as follows: Triple SILAC pull-down after UNC0638 treatment of 293T cells, DMSO/UNC0638 ratio of protein captured by 3×MBT.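 As to all read-outs here: mass spectrometry (Q-Exactive) SILAC quantitation, DMSO/UNC0638 ratio computed after subtracting 3×MBTD355N mutant pull-down background, only proteins with at least twofold 3×MBT over mutant signal considered.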 Type of experiment: cell-based. The arrangement: endogenous in cells; host or cells: HEK 293T. The following applies: all values in log base 2; for Relative to UNC0638 UNC Heavy / Relative to UNC0638 UNC Light: SILAC ratio DMSO relative to UNC0638, pull-down with 3xMBT; for Relative to UNC0638 UNC Heavy: UNC0638 in heavy SILAC media; for Relative to UNC0638 UNC Light: UNC0638 in light SILAC media; for Relative to UNC0638 Average: average of UNC Light and UNC Heavy experiments.

Method for G9a and GLP: For UNC0638 treatments cells were treated for 24 hours with UNC0638 at 2.5 μM or DMSO vehicle control. One experiment treated cells in light media with UNC0638, the other treated cells in heavy media. Both experiments included cells in medium media treated with DMSO for negative control pull-down with 3×MBTD355N.
UNC0638 treatment experiments used a Q-Exactive mass spectrometer (ThermoFisher Scientific). A 25 cm HPLC column with 3 μm Reliasil (Orochem) was used to separate peptides over a 4 hour gradient from 0 to 75% acetonitrile. Ions were generated using a custom nanospray source flowing at 250 nL/minute. Mass spectrometry settings were 70,000 MS1 resolution, data dependent selection of up to 20 precursor ions per cycle, dynamic exclusion of 30 seconds and isolation window of 2 m/z.
For UNC0638 experiments the treated vs. untreated ratio was determined by subtracting the value from 3×MBTD355N prior to dividing values from the light and heavy channels. Only proteins showing a two-fold signal to background ratio (3×MBT/3×MBTD355N) were evaluated as potential G9a/GLP substrates.

B1: UBTF (protein, UniProt P17480 1-764, looked up)
Nucleolar transcription …: MNGEADCPTDLEMAAPKGQDRWSQEDMLTLLECMKNNLPSNDSSKFKTTESHMDWEKVAFKDFSGDMCKLKWVEISNEVRKFRTLTELILDAQEHVKNPYKGKKLKKHPDFPKKPLTPYFRFFMEKRAKYAKLHPEMSNLDLTKILSKKYKELPEKKKMKYIQDFQREKQEFERNLARFREDHPDLIQNAKKSDIPEKPKTPQQLWYTHEKKVYLKVRPDATTKEVKDSLGKQWSQLSDKKRLKWIHKALEQRKEYEEIMRDYIQKHPELNISEEGITKSTLTKAERQLKDKFDGRPTKPPPNSYSLYCAELMANMKDVPSTERMVLCSQQWKLLSQKEKDAYHKKCDQKKKDYEVELLRFLESLPEEEQQRVLGEEKMLNINKKQATSPASKKPAQEGGKGGSEKPKRPVSAMFIFSEEKRRQLQEERPELSESELTRLLARMWNDLSEKKKAKYKAREAALKAQSERKPGGEREERGKLPESPKRAEEIWQQSVIGDYLARFKNDRVKALKAMEMTWNNMEKKEKLMWIKKAAEDQKRYERELSEMRAPPAATNSSKKMKFQGEPKKPPMNGYQKFSQELLSNGELNHLPLKERMVEIGSRWQRISQSQKEHYKKLAEEQQKQYKVHLDLWVKSLSPQDRAAYKEYISNKRKSMTKLRGPNPKSSRTTLQSKSESEEDDEEDEDDEDEDEEEEDDENGDSSEDGGDSSESSSEDESEDGDENEEDDEDEDDDEDDDEDEDNESEGSSSSSSSSGDSSDSDSN
Turning to B1, in the experiment with 3×MBT domain of L3MBTL1, the “3xMBT/D355N UNC Heavy” value was determined as 2.47 log base 2 and the “3xMBT/D355N UNC Light” value was 1.93 log base 2. Also, in the experiment with G9a and GLP, the “Relative to UNC0638 UNC Heavy” value is given as 0.49 log base 2, the “Relative to UNC0638 UNC Light” value is listed as −0.29 log base 2 and the “Relative to UNC0638 Average” value is 0.10 log base 2.

B2: DEK (protein, UniProt P35659 2-375, looked up)
Protein DEK: SASAPAAEGEGTPTQPASEKEPEMPGPREESEEEEDEDDEEEEEEEKEKSLIVEGKREKKKVERLTMQVSSLQREPFTIAQGKGQKLCEIERIHFFLSKKKTDELRNLHKLLYNRPGTVSSLKKNVGQFSGFPFEKGSVQYKKKEEMLKKFRNAMLKSICEVLDLERSGVNSELVKRILNFLMHPKPSGKPLPKSKKTCSKGSKKERNSSGMARKAKRTKCPEILSDESSSDEDEKKNKEESSDDEDKESEEEPPKKTAKREKPKQKATSKSKKSVKSANVKKADSSTTKKNQNSSKKESESEDSSDDEPLIKKLKKPPTDEELKETIKKLLASANLEEVTMKQICKKVYENYPTYDLTERKDFIKTTVKELIS
With B2, in the experiment on 3×MBT domain of L3MBTL1, the “3xMBT/D355N UNC Heavy” value is given as 2.38 log base 2 and the “3xMBT/D355N UNC Light” value came out at 2.01 log base 2. Besides, in the experiment with G9a and GLP, the “Relative to UNC0638 UNC Heavy” value was 0.10 log base 2, the “Relative to UNC0638 UNC Light” value is on record as 0.10 log base 2 and the “Relative to UNC0638 Average” value is reported as 0.10 log base 2.

B3: UBAP2L (protein, UniProt Q14157 1-1087, looked up)
Ubiquitin-associated protein …: MMTSVGTNRARGNWEQPQNQNQTQHKQRPQATAEQIRLAQMISDHNDADFEEKVKQLIDITGKNQDECVIALHDCNGDVNRAINVLLEGNPDTHSWEMVGKKKGVSGQKDGGQTESNEEGKENRDRDRDYSRRRGGPPRRGRGASRGREFRGQENGLDGTKSGGPSGRGTERGRRGRGRGRGGSGRRGGRFSAQGMGTFNPADYAEPANTDDNYGNSSGNTWNNTGHFEPDDGTSAWRTATEEWGTEDWNEDLSETKIFTASNVSSVPLPAENVTITAGQRIDLAVLLGKTPSTMENDSSNLDPSQAPSLAQPLVFSNSKQTAISQPASGNTFSHHSMVSMLGKGFGDVGEAKGGSTTGSQFLEQFKTAQALAQLAAQHSQSGSTTTSSWDMGSTTQSPSLVQYDLKNPSDSAVHSPFTKRQAFTPSSTMMEVFLQEKSPAVATSTAAPPPPSSPLPSKSTSAPQMSPGSSDNQSSSPQPAQQKLKQQKKKASLTSKIPALAVEMPGSADISGLNLQFGALQFGSEPVLSDYESTPTTSASSSQAPSSLYTSTASESSSTISSNQSQESGYQSGPIQSTTYTSQNNAQGPLYEQRSTQTRRYPSSISSSPQKDLTQAKNGFSSVQATQLQTTQSVEGATGSAVKSDSPSTSSIPPLNETVSAASLLTTTNQHSSSLGGLSHSEEIPNTTTTQHSSTLSTQQNTLSSSTSSGRTSTSTLLHTSVESEANLHSSSSTFSTTSSTVSAPPPVVSVSSSLNSGSSLGLSLGSNSTVTASTRSSVATTSGKAPPNLPPGVPPLLPNPYIMAPGLLHAYPPQVYGYDDLQMLQTRFPLDYYSIPFPTPTTPLTGRDGSLASNPYSGDLTKFGRGDASSPAPATTLAQPQQNQTQTHHTTQQTFLNPALPPGYSYTSLPYYTGVPGLPSTFQYGPAVFPVAPTSSKQHGVNVSVNASATPFQQPSGYGSHGYNTGVSVTSSNTGVPDISGSVYSKTQQSFEKQGFHSGTPAASFNLPSALGSGGPINPATAAAYPPAPFMHILTPHQQPHSQILHHHLQQDGQTGSGQRSQTSSIPQKPQTNKSAYNSYSWGAN
Turning to B3, in the experiment with 3×MBT domain of L3MBTL1, the “3xMBT/D355N UNC Heavy” value is 2.82 log base 2 and the “3xMBT/D355N UNC Light” value came to 1.83 log base 2. Moreover, in the experiment with G9a and GLP, the “Relative to UNC0638 UNC Heavy” value was 0.22 log base 2, the “Relative to UNC0638 UNC Light” value was −0.06 log base 2 and the “Relative to UNC0638 Average” value is 0.08 log base 2.

B4: HPRT1 (protein, UniProt P00492 2-218, looked up)
Hypoxanthine-guanine …: ATRSPGVVISDDEPGYDLDLFCIPNHYAEDLERVFIPHGLIMDRTERLARDVMKEMGGHHIVALCVLKGGYKFFADLLDYIKALNRNSDRSIPMTVDFIRLKSYCNDQSTGDIKVIGGDDLSTLTGKNVLIVEDIIDTGKTMQTLLSLVRQYNPKMVKVASLLVKRTPRSVGYKPDFVGFEIPDKFVVGYALDYNEYFRDLNHVCVISETGKAKYKA
In the case of B4, in the experiment on 3×MBT domain of L3MBTL1, the “3xMBT/D355N UNC Heavy” value is on record as 2.51 log base 2 and the “3xMBT/D355N UNC Light” value is 1.19 log base 2. For the same molecule, in the experiment with G9a and GLP, the “Relative to UNC0638 UNC Heavy” value is given as 0.28 log base 2, the “Relative to UNC0638 UNC Light” value is given as −0.08 log base 2 and the “Relative to UNC0638 Average” value is 0.10 log base 2.
